The assay concerns the target HLA-A*02:01. The experiment in a line: IEDB peptide-MHC binding, cellular MHC/competitive/fluorescence; ≥ and ≤ were set here for values at or beyond the usual limits of such assays. As to conditions: source organism: Human herpesvirus 5 strain AD169.
ALFFFDIDL: the IC50 (usually the concentration that inhibits the measured activity by half) stood at 2 µM.
The value for DIYRIFAEL was 12 µM; that for GLSISGNLL was 16 µM.
The value for ILARNLVPMV was 1 µM; that for LLQTGIHVRV was 5 µM.
The value for MLNIPSINV was 2.5 µM; that for NLLMNGQQI was 5 µM; that for RLLQTGIHV was 2 µM.
SIYVYALPL had an IC50 of 5 µM.
VLCPKNMII had an IC50 of 12 µM.
The value for YLESFCEDV was 16 µM.

The values above are taken from the Immune Epitope Database (IEDB).
